Laboratory results: patent US20240360214A1 (Pfizer, published 2024)

Legend:
[1] = biological target: T1, human LILRB1 (huLILRB1), purified recombinant protein from R&D Systems (human, UniProt Q8NHL6 24-458, limits assumed); experiment: SPR (Biacore 8K, 37 C), antibody captured by anti-human Fc, huLILRB1 as analyte, 1:1 fit
T1 construct: Bought protein, used as the SPR analyte and as the ELISA coat; The catalog number 8429-T4 is printed once for 'human LILRB2 or LILRB1'
Method: Biacore kinetic assays were conducted at 37° C. with a collection rate of 10 Hz using the Biacore 8K and 8K+instruments (Cytiva). Anti-LILRB2 antibodies were captured by an anti-human IgG (Fc specific) antibody (BR-1008-39, Cytiva) covalently coupled onto a CM5 sensor chip (29-1496-03, Cytiva) according to the manufacturer's instructions. The final capture levels of the antibodies ranged from 20 resonance units (RU) to 60 RU. HBS-EP+pH 7.4 (10 mM HEPES pH 7.4, 150 mM NaCl, 3 mM EDTA, 0.05% Tween 20) was used as sample and running buffer. Flow cell 1 was used as a reference flow cell. […] Dilutions were prepared in duplicate and injected over all flow cells for 60 s at flow rate of 50 μl per minute. Dissociation was monitored for 600 s and the surface was regenerated with two 30 s injections of 3M MgCl₂ at flow rate of 50 μl per minute. The resulting data was double referenced (Myszka, D. G. Improving biosensor analysis. J. Mol. Recognit. 12:279-284; (1999). Rate constants and affinities were determined by fitting the sensorgram data to a Langmuir 1:1 model using Biacore Insight Evaluation software version 3.0.12 (Cytiva). Results are summarized in Table 7.

[2] = biological target: T2, LILRB2 expressed on THP1 cells (human, UniProt Q8N423 22-597); experiment: flow cytometry competition with PE HLA-G tetramer on THP1-LILRB2 cells
T2 construct: whole, on cells; also called THP1 LILRB2 expressing cells; THP1-LILRB2 cells
Method: (§1) LILRB1 or LILRB2 overexpressing THP1 cells were prepared in FACS buffer (0.5% BSA in PBS) and seeded in 100 μl/well (96 well plate) at 1λ10⁶ cells/ml concentration. The tested antibodies were serially diluted 3-fold into assay buffer starting from 200 nM. 40 μl of serial diluted antibody together with 40 μl of PE labelled HLA-G tetramer (FRED HUTCH IMT40509) at 2 ug/ml were added to each well and incubated on ice for 1 hour. The cells were washed 2 times with FACS buffer and resuspended in 50 μl/well FACS buffer containing 1:1000 dilution of LIVE/Dead fixable violet dead cell stain (Invitrogen #L34964), incubated on ice for 15 minutes. The cells were then washed with FACS buffer for 2 times and resuspended in 80 μl of Cytofix buffer (BD Cat #554655).
(§2) The cell-based HLA-G ligand blocking assays followed the same procedure as described in Example 2.

[3] = biological target: huLILRA5 (human, UniProt A6NI73 42-268, limits assumed); experiment: ELISA, target coated on the plate, detection with anti-human IgG-HRP, OD at 450 nm
Method: (§3) Purified target proteins huLILRA1, A2, A3, A4, A5, A6, huLILRB1, B2, B3, B4 and B5 (all purchased from R&D) were coated on Nunc-Maxisorb 96-well ELISA plate at 1 ug/ml concentration and stored at 4° C. overnight. Plate was washed 3 times with PBS+0.05% Tween-20 and blocked with PBS+3% milk for 1 hour at room temperature. Tested LILRB1/LILRB2 bispecific antibody was serially diluted 5-fold in PBS+3% milk, starting from 133 nM. Blocking solution was removed and serially diluted antibody was added and incubated for 1 hour at room temperature. Plate was washed and a secondary detecting antibody (goat anti-human IgG-HRP from Invitrogen, Cat #31413, 1:5000) was added and incubated for 30 minutes at room temperature. Plate was washed again for 5 times; signal was developed using TMB substrate and the reaction stopped with 0.18M H₂SO₄. Absorbance was read at 450 nm on an envision plate reader (Perkin Elmer). […] There were no binding activities observed to any of the huLILRA family members tested, and no binding to huLILRB3, B4 or B5.

[4] = biological target: huLILRA4 (human, UniProt P59901 24-446, limits assumed); experiment: as above
Method: as §3

[5] = biological target: huLILRB3 (human, UniProt O75022 24-443, limits assumed); experiment: as above
Method: as §3

[6] = biological target: huLILRA6 (human, UniProt Q6PI73 24-447, limits assumed); experiment: as above
Method: as §3

[7] = biological target: huLILRA1 (human, UniProt O75019 17-461, limits assumed); experiment: as above
Method: as §3

[8] = biological target: huLILRA2 (human, UniProt Q8N149 24-449, limits assumed); experiment: as above
Method: as §3

[9] = biological target: huLILRB5 (human, UniProt O75023 24-458, limits assumed); experiment: as above
Method: as §3

[10] = biological target: huLILRA3 (human, UniProt Q8N6C8 24-439); experiment: as above
Method: as §3

[11] = biological target: T3, human LILRB2 (huLILRB2), purified recombinant protein (human, UniProt Q8N423 22-458, limits assumed); experiment: as above
T3 construct: Bought protein, used as the SPR analyte and as the ELISA coat; also called huLILIB2
Method: as §3

[12] = biological target: huLILRB4 (human, UniProt Q8NHJ6 22-259, limits assumed); experiment: as above
Method: as §3

[13] = biological target: T3, human LILRB2 (huLILRB2), purified …; experiment: SPR (Biacore 8K, 37 C), antibody captured by anti-human Fc, huLILRB2 as analyte, 1:1 fit
[14] = biological target: T4, LILRB1 expressed on THP1 cells (human, UniProt Q8NHL6 24-650); experiment: flow cytometry competition with PE HLA-G tetramer on THP1-LILRB1 cells
T4 construct: whole, on cells; also called THP1 LILRB1 expressing cells; THP1-LILRB1 cells
Method: as §1, §2

T1 sequence (Q8NHL6 24-458 limits assumed): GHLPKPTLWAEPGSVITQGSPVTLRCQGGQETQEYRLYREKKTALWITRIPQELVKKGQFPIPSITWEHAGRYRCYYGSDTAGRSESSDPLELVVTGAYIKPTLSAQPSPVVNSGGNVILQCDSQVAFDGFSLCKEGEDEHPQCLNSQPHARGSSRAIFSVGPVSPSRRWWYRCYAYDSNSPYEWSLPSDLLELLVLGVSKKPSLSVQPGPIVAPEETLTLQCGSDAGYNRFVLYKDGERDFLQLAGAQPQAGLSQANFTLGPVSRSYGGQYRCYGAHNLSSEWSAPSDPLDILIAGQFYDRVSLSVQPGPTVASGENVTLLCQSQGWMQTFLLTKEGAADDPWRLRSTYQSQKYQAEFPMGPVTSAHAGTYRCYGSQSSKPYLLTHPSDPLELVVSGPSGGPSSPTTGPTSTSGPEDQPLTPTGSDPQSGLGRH
T3 sequence (Q8N423 22-458 limits assumed): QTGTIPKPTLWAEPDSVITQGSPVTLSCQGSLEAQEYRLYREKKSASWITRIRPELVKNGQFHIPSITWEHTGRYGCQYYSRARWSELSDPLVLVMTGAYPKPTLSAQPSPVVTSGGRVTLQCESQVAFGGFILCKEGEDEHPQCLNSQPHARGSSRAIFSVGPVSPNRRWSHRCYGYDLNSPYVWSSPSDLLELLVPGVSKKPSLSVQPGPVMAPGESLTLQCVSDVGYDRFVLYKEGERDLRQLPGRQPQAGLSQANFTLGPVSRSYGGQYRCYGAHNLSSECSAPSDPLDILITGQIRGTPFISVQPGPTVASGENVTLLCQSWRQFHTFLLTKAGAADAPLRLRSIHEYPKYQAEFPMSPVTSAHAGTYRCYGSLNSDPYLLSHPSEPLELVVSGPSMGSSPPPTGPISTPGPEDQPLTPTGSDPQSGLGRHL
T2 sequence (Q8N423 22-597): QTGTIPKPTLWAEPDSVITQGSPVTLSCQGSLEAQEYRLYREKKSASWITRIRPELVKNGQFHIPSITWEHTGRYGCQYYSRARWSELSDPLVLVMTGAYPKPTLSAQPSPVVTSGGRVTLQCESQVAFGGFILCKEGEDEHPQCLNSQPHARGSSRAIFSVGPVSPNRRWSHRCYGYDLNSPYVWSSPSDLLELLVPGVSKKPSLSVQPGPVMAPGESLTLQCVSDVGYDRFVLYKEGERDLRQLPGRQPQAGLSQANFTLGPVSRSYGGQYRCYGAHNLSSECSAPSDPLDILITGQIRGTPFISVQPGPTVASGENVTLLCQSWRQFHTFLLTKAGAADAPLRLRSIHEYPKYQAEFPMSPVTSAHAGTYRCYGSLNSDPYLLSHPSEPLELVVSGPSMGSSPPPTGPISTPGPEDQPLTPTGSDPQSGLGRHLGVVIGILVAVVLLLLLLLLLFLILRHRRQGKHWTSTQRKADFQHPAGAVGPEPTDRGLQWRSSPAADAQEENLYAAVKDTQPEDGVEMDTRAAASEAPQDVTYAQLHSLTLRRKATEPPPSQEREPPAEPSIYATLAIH
T4 sequence (Q8NHL6 24-650): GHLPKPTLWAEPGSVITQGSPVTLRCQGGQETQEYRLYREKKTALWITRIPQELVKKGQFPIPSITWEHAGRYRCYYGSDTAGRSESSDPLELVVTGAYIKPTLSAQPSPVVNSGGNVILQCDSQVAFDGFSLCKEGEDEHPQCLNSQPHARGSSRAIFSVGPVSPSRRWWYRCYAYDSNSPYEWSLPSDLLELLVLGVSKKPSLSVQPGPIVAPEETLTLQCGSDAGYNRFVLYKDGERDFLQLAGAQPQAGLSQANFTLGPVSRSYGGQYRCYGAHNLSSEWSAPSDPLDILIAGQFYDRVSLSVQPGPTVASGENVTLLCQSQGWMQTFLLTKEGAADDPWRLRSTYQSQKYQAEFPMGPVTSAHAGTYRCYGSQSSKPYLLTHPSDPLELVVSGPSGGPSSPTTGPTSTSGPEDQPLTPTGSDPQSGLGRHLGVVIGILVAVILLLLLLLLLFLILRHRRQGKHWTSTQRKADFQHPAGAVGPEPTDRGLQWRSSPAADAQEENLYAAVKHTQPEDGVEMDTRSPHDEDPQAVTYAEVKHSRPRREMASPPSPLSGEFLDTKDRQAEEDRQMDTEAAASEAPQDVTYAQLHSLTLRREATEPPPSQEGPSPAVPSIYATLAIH
huLILRA1, sequence (O75019 17-461 limits assumed): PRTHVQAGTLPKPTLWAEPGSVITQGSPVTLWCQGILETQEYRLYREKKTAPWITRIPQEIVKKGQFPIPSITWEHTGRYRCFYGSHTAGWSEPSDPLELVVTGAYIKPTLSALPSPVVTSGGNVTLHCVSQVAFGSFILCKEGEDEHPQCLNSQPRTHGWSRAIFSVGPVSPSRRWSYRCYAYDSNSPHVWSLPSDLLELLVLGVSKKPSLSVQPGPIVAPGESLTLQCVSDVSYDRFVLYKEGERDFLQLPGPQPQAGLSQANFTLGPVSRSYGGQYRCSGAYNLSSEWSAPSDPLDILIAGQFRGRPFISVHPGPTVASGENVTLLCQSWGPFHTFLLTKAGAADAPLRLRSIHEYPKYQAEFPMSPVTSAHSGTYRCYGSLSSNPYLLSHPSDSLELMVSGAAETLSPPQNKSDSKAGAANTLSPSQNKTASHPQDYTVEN
huLILRB3, sequence (O75022 24-443 limits assumed): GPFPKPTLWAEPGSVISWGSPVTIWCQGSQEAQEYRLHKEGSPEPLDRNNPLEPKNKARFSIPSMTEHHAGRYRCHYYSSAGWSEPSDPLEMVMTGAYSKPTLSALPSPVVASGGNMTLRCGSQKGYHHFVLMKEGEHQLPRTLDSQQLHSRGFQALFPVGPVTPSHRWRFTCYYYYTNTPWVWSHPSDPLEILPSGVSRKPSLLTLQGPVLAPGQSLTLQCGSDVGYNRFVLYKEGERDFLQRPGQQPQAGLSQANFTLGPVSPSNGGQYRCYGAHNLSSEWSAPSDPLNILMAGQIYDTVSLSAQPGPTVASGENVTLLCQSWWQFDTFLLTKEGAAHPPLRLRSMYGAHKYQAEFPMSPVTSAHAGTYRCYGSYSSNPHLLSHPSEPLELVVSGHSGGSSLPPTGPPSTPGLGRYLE
huLILRA2, sequence (Q8N149 24-449 limits assumed): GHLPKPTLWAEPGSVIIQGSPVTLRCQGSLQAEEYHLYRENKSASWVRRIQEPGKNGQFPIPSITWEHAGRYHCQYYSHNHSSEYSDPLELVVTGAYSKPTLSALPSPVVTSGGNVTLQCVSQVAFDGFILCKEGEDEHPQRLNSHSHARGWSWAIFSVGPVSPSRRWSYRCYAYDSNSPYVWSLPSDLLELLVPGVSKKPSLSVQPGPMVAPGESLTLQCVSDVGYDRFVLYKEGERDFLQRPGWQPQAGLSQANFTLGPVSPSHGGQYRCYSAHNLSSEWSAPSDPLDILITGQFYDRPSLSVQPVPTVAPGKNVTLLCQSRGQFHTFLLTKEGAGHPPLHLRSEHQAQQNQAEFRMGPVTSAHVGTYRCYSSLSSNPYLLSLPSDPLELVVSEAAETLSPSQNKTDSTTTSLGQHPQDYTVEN
huLILRA5, sequence (A6NI73 42-268 limits assumed): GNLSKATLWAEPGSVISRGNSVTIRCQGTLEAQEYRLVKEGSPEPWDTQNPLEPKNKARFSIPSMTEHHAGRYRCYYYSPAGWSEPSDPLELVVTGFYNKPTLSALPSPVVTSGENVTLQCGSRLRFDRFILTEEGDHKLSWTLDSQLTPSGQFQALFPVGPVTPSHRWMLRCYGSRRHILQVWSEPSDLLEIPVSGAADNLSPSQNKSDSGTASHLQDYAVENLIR
huLILRA3, sequence (Q8N6C8 24-439 limits assumed): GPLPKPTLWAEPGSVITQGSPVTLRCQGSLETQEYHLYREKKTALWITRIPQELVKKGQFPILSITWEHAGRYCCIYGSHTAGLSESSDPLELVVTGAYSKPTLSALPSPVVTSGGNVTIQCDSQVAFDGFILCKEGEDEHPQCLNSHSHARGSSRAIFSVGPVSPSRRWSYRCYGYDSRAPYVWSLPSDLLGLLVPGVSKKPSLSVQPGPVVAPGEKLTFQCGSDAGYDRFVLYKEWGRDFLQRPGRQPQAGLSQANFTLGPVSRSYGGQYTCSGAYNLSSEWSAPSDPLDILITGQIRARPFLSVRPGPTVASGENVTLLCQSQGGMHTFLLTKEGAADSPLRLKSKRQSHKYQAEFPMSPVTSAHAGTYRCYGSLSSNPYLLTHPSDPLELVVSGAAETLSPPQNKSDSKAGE
huLILRB5, sequence (O75023 24-458 limits assumed): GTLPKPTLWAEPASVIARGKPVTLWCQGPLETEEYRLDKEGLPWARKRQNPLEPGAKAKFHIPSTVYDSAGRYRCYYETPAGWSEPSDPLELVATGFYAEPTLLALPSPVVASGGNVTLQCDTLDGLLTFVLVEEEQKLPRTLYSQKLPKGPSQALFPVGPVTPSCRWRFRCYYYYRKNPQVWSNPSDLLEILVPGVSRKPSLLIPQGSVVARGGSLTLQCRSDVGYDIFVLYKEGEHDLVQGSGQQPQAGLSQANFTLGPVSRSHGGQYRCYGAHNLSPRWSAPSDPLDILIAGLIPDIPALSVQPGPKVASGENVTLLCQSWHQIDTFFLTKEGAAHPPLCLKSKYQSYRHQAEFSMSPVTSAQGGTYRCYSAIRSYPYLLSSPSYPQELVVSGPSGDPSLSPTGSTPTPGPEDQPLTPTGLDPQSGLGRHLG
huLILRA4, sequence (P59901 24-446 limits assumed): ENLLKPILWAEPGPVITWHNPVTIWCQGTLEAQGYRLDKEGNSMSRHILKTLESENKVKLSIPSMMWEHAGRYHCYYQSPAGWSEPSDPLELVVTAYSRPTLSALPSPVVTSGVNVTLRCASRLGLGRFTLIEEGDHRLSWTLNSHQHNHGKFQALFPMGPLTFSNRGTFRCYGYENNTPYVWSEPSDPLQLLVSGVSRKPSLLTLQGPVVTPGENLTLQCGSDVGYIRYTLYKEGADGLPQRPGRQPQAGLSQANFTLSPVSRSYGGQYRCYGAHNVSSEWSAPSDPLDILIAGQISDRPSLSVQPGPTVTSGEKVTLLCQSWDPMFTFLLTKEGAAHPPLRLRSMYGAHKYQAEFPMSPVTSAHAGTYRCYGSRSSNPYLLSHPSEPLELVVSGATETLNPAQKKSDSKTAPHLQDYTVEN

Kd [1] [nM] | koff [1] [s⁻¹] | kon [1] [M⁻¹ s⁻¹] | t½ [1] [min] | IC50 [2] [nM] | binding result [3] | binding result [4] | binding result [5] | binding result [6] | binding result [7] | binding result [8] | binding result [9] | binding result [10] | EC50 (read off the curve) [11] [nM] | binding result [12] | Kd [13] [nM] | koff [13] [s⁻¹] | kon [13] [M⁻¹ s⁻¹] | t½ [13] [min] | IC50 [14] [nM] | Binder
29.8 | 0.0135 | 457000 | 0.855 | 15.4 | no binding (tested: about 130 nM) | no binding (tested: about 130 nM) | no binding (tested: about 130 nM) | no binding (tested: about 130 nM) | no binding (tested: about 130 nM) | no binding (tested: about 130 nM) | no binding (tested: about 130 nM) | no binding (tested: about 130 nM) | ~0.6 | no binding (tested: about 130 nM) | 0.73 | 0.000323 | 443000 | 35.8 | 37.6 | LILRB1xLILRB2 bispecific antibody BsAb-1882 (bispecific antibody, The B1 arm Fc chain is joined to the light chain CL; also called LILRB1/LILRB2 bispecific antibody) heavy 1: not shown light 1: SYELTQPPSVSVSPGQTASITCGGNNIGSKGVHWYQQKPGQSPVLVISYDSDRPSGIPERFSGSNSGNTATLTISGTQAMDEADYYCQVWDSSTRVFGTGTKVTVLGQPKAAPSVTLFPPSSEELQANKATLVCLISDFYPGAVTVAWKADSSPVKAGVETTTPSKQSNNKYAASSYLSLTPEQWKSHRSYSCQVTHEGSTVEKTVAPTECSDKTHTCPPCPAPEAAGAPSVFLFPPKPKDTLMISRTPEVTCVVVDVSHEDPEVKFNWYVDGVEVHNAKTKPREEQYNSTYRVVSVLTVLHQDWLNGKEYKCKVSNKALPAPIEKTISKAKGQPREPQVYTLPPCREEMTKNQVSLSCAVKGFYPSDIAVEWESNGQPENNYKTTPPVLDSDGSFFLVSKLTVDKSRWQQGNVFSCSVMHEALHNHYTQKSLSLSPGK heavy 2: EVQLLESGGGLVQPGGSLRLSCAASGFTFSSYAMSWVRQAPGKGLEWVSAISGSGGSTYYADSVKGRFTISRDNSKNTLYLQMNSLRAEDTAVYYCWRWLNLGDAFDIWGQGTMVTVSSASTKGPSVFPLAPSSKSTSGGTAALGCLVKDYFPEPVTVSWNSGALTSGVHTFPAVLQSSGLYSLSSVVTVPSSSLGTQTYICNVNHKPSNTKVDKKVEPKSCDKTHTCPPCPAPEAAGAPSVFLFPPKPKDTLMISRTPEVTCVVVDVSHEDPEVKFNWYVDGVEVHNAKTKPREEQYNSTYRVVSVLTVLHQDWLNGKEYKCKVSNKALPAPIEKTISKAKGQPREPQVCTLPPSREEMTKNQVSLWCLVKGFYPSDIAVEWESNGQPENNYKTTPPVLDSDGSFFLYSKLTVDKSRWQQGNVFSCSVMHEALHNHYTQKSLSLSPGK light 2: not shown
 |  |  |  | 16.1 |  |  |  |  |  |  |  |  |  |  |  |  |  |  | 43.2 | LILRB1xLILRB2 bispecific antibody BsAb-1880 (bispecific antibody, human IgG1) heavy 1: not shown light 1: SYELTQPPSVSVSPGQTASITCGGNNIGSKGVHWYQQKPGQSPVLVISYDSDRPSGIPERFSGSNSGNTATLTISGTQAMDEADYYCQVWDSSTRVFGTGTKVTVLGQPKAAPSVTLFPPSSEELQANKATLVCLISDFYPGAVTVAWKADSSPVKAGVETTTPSKQSNNKYAASSYLSLTPEQWKSHRSYSCQVTHEGSTVEKTVAPTECS heavy 2: EVQLLESGGGLVQPGGSLRLSCAASGFTFSSYAMSWVRQAPGKGLEWVSAISGSGGSTYYADSVKGRFTISRDNSKNTLYLQMNSLRAEDTAVYYCWRWLNLGDAFDIWGQGTMVTVSSASTKGPSVFPLAPSSKSTSGGTAALGCLVKDYFPEPVTVSWNSGALTSGVHTFPAVLQSSGLYSLSSVVTVPSSSLGTQTYICNVNHKPSNTKVDKKVEPKSCEKTHTCPPCPAPEAAGAPSVFLFPPKPKDTLMISRTPEVTCVVVDVSHEDPEVKFNWYVDGVEVHNAKTKPREEQYNSTYRVVSVLTVLHQDWLNGKEYKCKVSNKALPAPIEKTISKAKGQPREPQVYTLPPSREEMTKNQVSLTCEVKGFYPSDIAVEWESNGQPENNYKTTPPVLDSDGSFFLYSKLTVDKSRWQQGNVFSCSVMHEALHNHYTQKSLSLSPGK light 2: not shown
